B1: VHH 3MFR60 (family 10) (VHH)
VHH: QVQLQESGGGLVQAGGSLRVSCAASGIIFSMNGMGWFRQAPGKQRELVASITSGGSTKYADSVKGRFTISRDNAKNTVYLQMNSLKPEDTAVYYCNIQFGSRWSTYWGQGTQVTVSS
B2: VHH 2HFO19 (family 1) (VHH)
VHH: QVQLQESGGGLVQPGGSLRVSCAASGFPFSTVYMSWVRQAPGKGLEWVSGINNDGGVIDYADSVKGRFTISRDNAKNTLYLQLNSLKPEDTALYFCARGRSFVATLSSSLRGQGTQVTVSS
notes: also called Nb19
B3: VHH 2HFO42 (family 3) (VHH)
VHH: QVQLQESGGGLVQAGGSLRLSCAASGSGFSGMIMGWYRQVPGKQRELVATVTSHGTTNYADSVKGRFTISRDNAKNTVLLQMNSLKPEDTAVYYCNAHFPGIYWGKGTQVTVSS
notes: also called 2HF042; Nb42

Legend:
human FOLR1/2 chimera 1 = target: T1, human FOLR1/2 chimera 1 (human, UniProt P15328 25-234); experiment: flow cytometry, transfected HEK293T cells
T1 construct: on transfected HEK293T cells
T1 sequence (P15328 other isoform, or with tags, fused parts or gaps mutant limits assumed): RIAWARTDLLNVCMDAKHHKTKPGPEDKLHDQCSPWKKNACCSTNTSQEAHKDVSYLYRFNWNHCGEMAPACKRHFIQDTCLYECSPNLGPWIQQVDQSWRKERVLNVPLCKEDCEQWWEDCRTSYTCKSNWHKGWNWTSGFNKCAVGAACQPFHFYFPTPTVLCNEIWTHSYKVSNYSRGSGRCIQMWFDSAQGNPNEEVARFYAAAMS
Protocol: (§1) Chimera 1 SEQ ID No. 67) and 7 ^{∘}Ch7; SEQ ID No. 73) also contain an additional residue change at a separate location. […] HEK293T cells were transfected with hFOLR1, hFOLR2, one of the hFOLR1/2 chimeric constructs ^{∘}FIG. 2B) or single residue mutants ^{∘}FIG. 2C). Binding of VHHs 2HFO19, 2HFO42, 3MFR60, and a mouse anti-FOLR1 monoclonal antibody ^{∘}mAb) was detected using a mouse anti-His tag antibody for the VHHs followed by an anti-mouse-phycoerythrin antibody. All VHHs were tested at a concentration of 200 nM and untransfected cells were used as a negative control. The colors used for the VHHs represent the different CDR3 families; blue: family 1, green: family 3, grey: family 10.
To identify the exact region in which the VHHs bind to FRα, epitope mapping experiments were performed. Since the VHHs are able to bind human FRα, but not FRβ, we generated seven human FOLR1/2 chimeric constructs where regions of human FOLR1 were replaced by the corresponding human FOLR2 ^{∘}FRβ) regions ^{∘}FIG. 2A): chimera 1 SEQ ID No. 67), chimera 2 ^{∘}SEQ ID No. 68), chimera 3 ^{∘}SEQ ID No. 69), chimera 4 ^{∘}SEQ ID No. 70), chimera 5 ^{∘}SEQ ID No. 71), chimera 6 ^{∘}SEQ ID No. 72) and chimera 7 ^{∘}SEQ ID No. 73). Three additional chimera 1 constructs were made: chimera 1a ^{∘}replacing fragment 31-40; SEQ ID No. 74), chimera 1b ^{∘}replacing fragment 41-50; SEQ ID No. 75) and chimera 1c ^{∘}replacing fragment 51-64; SEQ ID NO. 76). The constructs were transiently transfected into HEK293T cells and dose-dependent binding of the VHHs to the wild-types FRα and FRβ ^{∘}WTs) or the chimeric constructs was assessed via flow cytometry via detection of the tag ^{∘}FIG. 2B). […] Different anti-FRα VHHs were able to bind to cell-expressed FRα-FRβ chimeras to a similar level as WT FRα, with the exception of chimera 4 ^{∘}SEQ ID No. 70) where the binding was completely abolished for all VHHs.

[1] = target: T2, human folate receptor alpha (hFRα), recombinant protein (human, UniProt P15328 25-233); experiment: BLI, FRα on AR2G biosensors, 1:1 model
T2 construct: Bought recombinant proteins (His-tagged, or biotinylated via Avi-tag, e.g. AcroBiosystems FO1-H82E2, F01-H52H1); also called hFOLR1; huFOLR1
T2 sequence (P15328 25-233 limits assumed): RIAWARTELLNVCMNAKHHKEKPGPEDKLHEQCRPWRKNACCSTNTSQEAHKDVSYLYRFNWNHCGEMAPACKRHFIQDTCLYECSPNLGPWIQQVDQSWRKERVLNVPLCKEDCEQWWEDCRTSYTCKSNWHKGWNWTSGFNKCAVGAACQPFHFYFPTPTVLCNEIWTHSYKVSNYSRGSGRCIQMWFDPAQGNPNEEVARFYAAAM
Protocol: (§2) As a next step, the kinetic binding constants were determined using BLI ^{∘}Table 3). […] Similar to the ELISA results ^{∘}FIG. 1A-B), higher binding affinities were measured for mouse FRα than human FRα, with KD values […] one order of magnitude in most cases. […] For 3HFO28, binding to human FRα could not be confirmed by BLI, and this VHH was excluded from further characterization.
(§3) The kinetic parameters were calculated using a 1:1 binding model.

[2] = target: T3, mouse folate receptor alpha (mFRα), recombinant protein (mouse, UniProt P35846 25-232); experiment: BLI, FRα on AR2G biosensors, 1:1 model
T3 construct: Bought recombinant proteins (e.g. biotinylated, Acro Biosystems FO1-M82E9); also called mFOLR1; Ms FOLR1
T3 sequence (P35846 25-232 limits assumed): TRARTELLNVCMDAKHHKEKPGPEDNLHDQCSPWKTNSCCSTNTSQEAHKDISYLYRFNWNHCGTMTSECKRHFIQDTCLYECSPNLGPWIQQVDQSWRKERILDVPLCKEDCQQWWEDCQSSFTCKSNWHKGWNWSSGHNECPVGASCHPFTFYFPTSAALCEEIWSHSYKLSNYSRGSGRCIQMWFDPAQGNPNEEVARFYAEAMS
Protocol: as §2, §3

human FRα E140Q = target: T4, human FRα E140Q (human, UniProt P15328 25-234); experiment: flow cytometry, transfected HEK293T cells (data not shown)
T4 construct: The entry is the mutant itself
T4 sequence (P15328 25-234 E140Q limits assumed): as the sequence (P15328 other isoform, or with tags, fused parts or gaps mutant limits assumed) above, with D8E, D15N, T21E, D31E, S34R, K37R, E116Q, S192P counted along it
Summary of the method: (§4)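 HEK293T cells were transfected with single-residue mutants of human folate receptor alpha. Binding was measured by flow cytometry with each VHH at 200 nM. VHHs were detected with a mouse anti-His tag antibody followed by an anti-mouse phycoerythrin antibody. Untransfected cells served as negative control.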

human FRα R147H = target: T5, human FRα R147H (human, UniProt P15328 25-234); experiment: as above
T5 construct: The entry is the mutant itself
T5 sequence (P15328 25-234 R147H limits assumed): as the sequence (P15328 other isoform, or with tags, fused parts or gaps mutant limits assumed) above, with D8E, D15N, T21E, D31E, S34R, K37R, R123H, S192P counted along it
Summary of the method: as §4

human FRα Y150H = target: T6, human FRα Y150H (human, UniProt P15328 25-234); experiment: as above
T6 construct: The entry is the mutant itself
T6 sequence (P15328 25-234 Y150H limits assumed): as the sequence (P15328 other isoform, or with tags, fused parts or gaps mutant limits assumed) above, with D8E, D15N, T21E, D31E, S34R, K37R, Y126H, S192P counted along it
Summary of the method: as §4

[3] = target: T7, human FRβ with R135 replaced by glutamine (human, UniProt P14207 17-230); experiment: flow cytometry on transiently transfected HEK293T cells, 200 nM VHH, mouse anti-His then anti-mouse-PE (B575-A)
T7 construct: The entry is the mutant itself; also called hFRβ R135Q
T7 sequence (P14207 17-230 R135Q limits assumed): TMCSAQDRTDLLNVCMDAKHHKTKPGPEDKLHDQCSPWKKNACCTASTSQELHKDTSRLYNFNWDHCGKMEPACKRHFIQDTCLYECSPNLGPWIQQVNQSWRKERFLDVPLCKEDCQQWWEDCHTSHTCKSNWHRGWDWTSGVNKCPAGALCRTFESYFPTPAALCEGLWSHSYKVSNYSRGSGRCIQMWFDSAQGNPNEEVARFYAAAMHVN
Excerpt: as §1, with “FIGS. 2A-2C illustrates the epitope mapping of anti-FOLR1 VHHs on human FOLR1/2 chimeras. ^{∘}FIG. 2A) To narrow down the epitope of the anti-folate receptor alpha ^{∘}FOLR1) VHHs, chimeric constructs were generated by exchanging a sequence block in human FOLR1 ^{∘}hFOLR1) by the corresponding human folate receptor beta ^{∘}hFOLR2) sequence, since the VHHs are able to bind both hFOLR1 and mouse FOLR1 ^{∘}mFOLR1; SEQ ID No.97), but not hFOLR2. These regions are indicated by the green arrows. Chimera” for “Chimera”
To further narrow down which specific residues might play a role, single residues of human FRα in the chimera 4 region that are not conserved between FRα and FRβ were mutated to their human FRβ counterpart. While all VHHs retained binding to human FRα E140Q SEQ ID No. 77), R147H ^{∘}SEQ ID No. 79), and Y150H ^{∘}SEQ ID No. 80) ^{∘}data not shown), binding was completely abolished when the Q141R mutation ^{∘}SEQ ID No. 78) was introduced ^{∘}FIG. 2C). To verify the role of this residue in the binding of the VHHs, the R135 residue in human FRβ was replaced by glutamine ^{∘}SEQ ID No. 81) and binding of the VHHs was analyzed. […] In addition to having ^{∘}partially) overlapping epitopes, the VHHs thus all require residue Q141 for binding.

| Binder | binding result (human FOLR1/2 chimera 1) | Kd [1] | koff [1] | kon [1] | Kd [2] | koff [2] | kon [2] | binding result (human FRα E140Q) | binding result (human FRα R147H) | binding result (human FRα Y150H) | binding result [3] |
| --- | --- | --- | --- | --- | --- | --- | --- | --- | --- | --- | --- |
| B1 | binds | 169 nM | 0.159 s⁻¹ | 938000 M⁻¹ s⁻¹ | 2.59 nM | 0.00297 s⁻¹ | 1.15e+06 M⁻¹ s⁻¹ | binds | binds | binds | binds |
| B2 | binds | 63.7 nM | 0.0149 s⁻¹ | 233000 M⁻¹ s⁻¹ | 2.97 nM | 0.00393 s⁻¹ | 1.32e+06 M⁻¹ s⁻¹ | binds | binds | binds | binds |
| B3 | binds | 274 nM | 0.0276 s⁻¹ | 101000 M⁻¹ s⁻¹ | 23.8 nM | 0.00467 s⁻¹ | 203000 M⁻¹ s⁻¹ | binds | binds | binds | binds |

— patent US20250304677A1 (VIB VZW, published 2025)
